Experimental data: the supplement of paper PMC11246515
± gives the standard deviation of the averaged measurements.

Assay: total protein half-life in vivo (active degradation + dilution); higher = more stable protein
[1] = E. coli NCM3722 delta-clpP delta-lon delta-hslV, growth: N-lim chemostat, doubling time 6 h
[2] = E. coli NCM3722 delta-clpP, growth: N-lim chemostat, doubling time 6 h
[3] = E. coli NCM3722 delta-smpB, growth: N-lim chemostat, doubling time 6 h
[4] = wild type E. coli NCM3722, growth: C-lim chemostat, doubling time 6 h
[5] = wild type E. coli NCM3722, growth: C-lim chemostat, doubling time 12 h
[6] = wild type E. coli NCM3722, growth: N-lim chemostat, doubling time 6 h
[7] = wild type E. coli NCM3722, growth: N-lim chemostat, doubling time 12 h
[8] = wild type E. coli NCM3722, growth: P-lim chemostat, doubling time 6 h
[9] = wild type E. coli NCM3722, growth: P-lim chemostat, doubling time 12 h
[10] = E. coli NCM3722 delta-hslV, growth: N-lim chemostat, doubling time 6 h
[11] = wild type E. coli NCM3722, growth: C-lim chemostat, doubling time 3 h
[12] = E. coli NCM3722 delta-lon, growth: N-lim chemostat, doubling time 6 h

| Sequence | total protein half-life in vivo [1] [h] | total protein half-life in vivo [2] [h] | total protein half-life in vivo [3] [h] | total protein half-life in vivo [4] [h] | total protein half-life in vivo [5] [h] | total protein half-life in vivo [6] [h] | total protein half-life in vivo [7] [h] | total protein half-life in vivo [8] [h] | total protein half-life in vivo [9] [h] | total protein half-life in vivo [10] [h] | total protein half-life in vivo [11] [h] | total protein half-life in vivo [12] [h] |
| --- | --- | --- | --- | --- | --- | --- | --- | --- | --- | --- | --- | --- |
| MKIFSVRQTVLPALLVLSPVVFAADEQTMIVSAAPQVVSELDTPAAVSVVDGEEMRLATPRINLSESLTGVPGLQVQNRQNYAQDLQLSIRGFGSRSTYGIRGIRLYVDGIPATMPDGQGQTSNIDLSSVQNVEVLRGPFSALYGNASGGVMNVTTQTGQQPPTIEASSYYGSFGSWRYGLKATGATGDGTQPGDVDYTVSTTRFTTHGYRDHSGAQKNLANAKLGVRIDEASKLSLIFNSVDIKADDPGGLTKAEWKANPQQAPRAEQYDTRKTIKQTQAGLRYERSLSSRDDMSVMMYAGERETTQYQSIPMAPQLNPSHAGGVITLQRHYQGIDSRWTHRGELGVPVTFTTGLNYENMSENRKGYNNFRLNSGMPEYGQKGELRRDERNLMWNIDPYLQTQWQLSEKLSLDAGVRYSSVWFDSNDHYVTPGNGDDSGDASYHKWLPAGSLKYAMTDAWNIYLAAGRGFETPTINELSYRADGQSGMNLGLKPSTNDTIEIGSKTRIGDGLLSLALFQTDTDDEIVVDSSSGGRTTYKNAGKTRRQGAELAWDQRFAGDFRVNASWTWLDATYRSNVCNEQDCNGNRMPGIARNMGFASIGYVPEDGWYAGTEARYMGDIMADDENTAKAPSYTLVGLFTGYKYNYHNLTVDLFGRVDNLFDKEYVGSVIVNESNGRYYEPSPGRNYGVGMNIAWRFE | 5.463 ± 0.043 | 6.48 ± 0.072 | 5.98 ± 0.44 | 6.21 ± 0.33 | 13.6 ± 1 | 6.02 ± 0.5 | 12.9 ± 0.56 | 5.34 ± 0.089 | > 16 |  |  |  |
| MKIGIIGAMEEEVTLLRDKIENRQTISLGGCEIYTGQLNGTEVALLKSGIGKVAAALGATLLLEHCKPDVIINTGSAGGLAPTLKVGDIVVSDEARYHDADVTAFGYEYGQLPGCPAGFKADDKLIAAAEACIAELNLNAVRGLIVSGDAFINGSVGLAKIRHNFPQAIAVEMEATAIAHVCHNFNVPFVVVRAISDVADQQSHLSFDEFLAVAAKQSSLMVESLVQKLAHG [P0AF12] | 4.9 ± 0.49 | 4.39 ± 0.069 | 5.43 ± 0.68 | 6.36 ± 0.19 | 12.6 ± 1.4 | 4.85 ± 0.48 | 8.24 ± 0.78 | 5.73 ± 0.097 | 12.1 ± 0.39 | 4.42 ± 0.2 | 3.27 ± 0.28 |  |
| MKIGTVAGTNDSTTTIATNDMVQEHVTNFTKELFGYIANGIGDDISSIARTMLGEVVEKIDDWQIERFQQSIQDDKISFTIQTDHSEKYSMLSGMRAHILRRNNNYQFIVTINSKNYGCSLDNTDINWCSIVYLLNNMTVNDNANDVAVTESYKPIWNWKISQYNVSDIKFETMIKPQFADRIYFSNCLPVDPTSTRPTYFGDTDGSVGAVLFALFATGHLGIMAEGENFLSQLLNIEDEVLNVLLRENFNEQLNTNVNTIISILNRRDIILESLQPYLVINKDAVTPCTFLGDQTGDRFSNICGDQFIIDLLKRIMSINENVHVLAGNHETNCNGNYMQNFTRMKPLDEDTYSGIKDYPVCFYDPKYKIMANHHGITFDDQRKRYIIGPITVSIDEMTNALDPVELAAIINKKHHAIINGKKFKTSRAISCRSFNRYFSVSTDYRPKLEALLACSQMLGINQVVAHNGNGGRERIGETGTVLGLNARDSKHAGRMFSMHNCQINPGAGPEITTPWKSYQHEKNRNGLMPLIRRRTMLQL | 5.59 ± 0.23 |  |  |  |  |  |  |  |  |  |  |  |
| MKIHTTEALMKAEISRRSLMKTSALGSLALASSAFTLPFSQMVRAAEAPVEEKAVWSSCTVNCGSRCLLRLHVKDDTVYWVESDTTGDDVYGNHQVRACLRGRSIRRRMNHPDRLKYPMKRVGKRGEGKFERISWDEALDTISDNLRRILKDYGNEAVHVLYGTGVDGGNITNSNVPYRLMNSCGGFLSRYGSYSTAQISAAMSYMFGANDGNSPDDIANTKLVVMFGNNPAETRMSGGGVTYYVEQARERSNARMIVIDPRYNDTAAGREDEWLPIRPGTDGALACAIAWVLITENMVDQPFLDKYCVGYDEKTLPANAPRNAHYKAYILGEGPDGIAKTPEWAAKITSIPAEKIIQLAREIGSAKPAYICQGWGPQRHSNGEQTSRAIAMLSVLTGNVGINGGNSGVREGSWDLGVEWFPMLENPVKTQISVFTWTDAIDHGTEMTATRDGVRGKEKLDVPIKFLWCYASNTLINQHGDINHTHEVLQDDSKCEMIVGIDHFMTASAKYCDILLPDLMPTEQEDLISHESAGNMGYVILAQPATSAKFERKPIYWMLSEVAKRLGPDVYQTFTEGRSQHEWIKYLHAKTKERNPEMPDYEEMKTTGIFKKKCPEEHYVAFRAFREDPQANPLKTPSGKIEIYSERLAKIADTWELKKDEIIHPLPAYTPGFDGWDDPLRKTYPLQLTGFHYKARTHSSYGNIDVLQQACPQEVWINPIDAQARGIRHGDTVRVFNNNGEMLIAAKVTPRILPGVTAIGQGAWLKADMFGDRVDHGGSINILTSHRPSPLAKGNPSHSNLVQIEKV | 6.47 ± 2.1 |  | 4.94 | 4.9 | 13.9 |  | 3.57 |  | 3.5 |  |  |  |
| MKILLAALTSSFMLVGCTPRIEVAAPKEPITINMNVKIEHEIIIKADKDVEELLETRSDLF | 7.04 ± 0.68 |  | 5.661 ± 0.018 |  | 12 ± 1.4 |  | 13.6 ± 1.1 |  | 12.9 ± 0.47 |  | 3.15 ± 0.11 | 6.88 ± 0.2 |
| MKILVIGPSWVGDMMMSQSLYRTLQARYPQAIIDVMAPAWCRPLLSRMPEVNEAIPMPLGHGALEIGERRKLGHSLREKRYDRAYVLPNSFKSALVPFFAGIPHRTGWRGEMRYGLLNDVRVLDKEAWPLMVERYIALAYDKGIMRTAQDLPQPLLWPQLQVSEGEKSYTCNQFSLSSERPMIGFCPGAEFGPAKRWPHYHYAELAKQLIDEGYQVVLFGSAKDHEAGNEILAALNTEQQAWCRNLAGETQLDQAVILIAACKAIVTNDSGLMHVAAALNRPLVALYGPSSPDFTPPLSHKARVIRLITGYHKVRKGDAAEGYHQSLIDITPQRVLEELNALLLQEEA | 6.06 ± 0.088 | 6.69 ± 0.98 | 6.11 ± 0.48 | 5.58 ± 0.14 | 11.7 ± 2.8 | 6.4 ± 0.97 | 11.1 ± 1.8 | 6.54 ± 0.24 | 11.7 ± 1.7 | 5.71 ± 0.23 | 3.24 ± 0.14 | 5.22 ± 0.11 |
| MKILVYGINYSPELTGIGKYTGEMVEWLAAQGHEVRVITAPPYYPQWQVGENYSAWRYKREEGAATVWRCPLYVPKQPSTLKRLLHLGSFAVSSFFPLMAQRRWKPDRIIGVVPTLFCAPGMRLLAKLSGARTVLHIQDYEVDAMLGLGLAGKGKGGKVAQLATAFERSGLHNVDNVSTISRSMMNKAIEKGVAAENVIFFPNWSEIARFQHVADADVDALRNQLDLPDNKKIILYSGNIGEKQGLENVIEAADRLRDEPLIFAIVGQGGGKARLEKMAQQRGLRNMQFFPLQSYDALPALLKMGDCHLVVQKRGAADAVLPSKLTNILAVGGNAVITAEAYTELGQLCETFPGIAVCVEPESVEALVAGIRQALLLPKHNTVAREYAERTLDKENVLRQFINDIRG | 4.84 |  | 5.37 |  |  |  |  |  |  |  |  |  |
